Experimental data as given in US20210253718A1, “FRIZZLED5 PROTEIN-BINDING AGENTS” (Modmab Therapeutics Corporation, priority 2016, published 2021).

T1: FZD3 CRD (Homo sapiens, UniProt Q9NPG1)
T1 construct: CRD of FZD1, FZD2, FZD3, FZD4, FZD5, FZD6, FZD7, FZD8, FZD9 or FZD10; GPI anchor signal (C); expressed in transfected cells; host or cells: CHO cells, lentiviral pLenti-puro
T1 sequence (Q9NPG1 23-136 limits assumed): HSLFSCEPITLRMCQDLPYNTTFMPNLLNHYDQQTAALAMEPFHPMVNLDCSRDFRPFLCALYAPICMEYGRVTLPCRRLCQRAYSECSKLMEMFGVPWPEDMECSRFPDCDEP

T2: FZD4 CRD (Homo sapiens, UniProt Q9ULV1)
T2 construct: E42-V167; GPI anchor signal (C); expressed in transfected cells; host or cells: CHO cells, lentiviral pLenti-puro
T2 sequence (Q9ULV1 42-167): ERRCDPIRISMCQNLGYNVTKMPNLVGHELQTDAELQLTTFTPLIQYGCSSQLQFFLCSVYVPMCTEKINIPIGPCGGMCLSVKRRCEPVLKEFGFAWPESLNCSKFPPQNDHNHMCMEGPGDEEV

T3: FZD5 CRD (Homo sapiens, UniProt Q13467)
T3 construct: K29-T156; GPI anchor signal (C); expressed in transfected cells; host or cells: CHO cells, lentiviral pLenti-puro
T3 sequence (Q13467 29-156): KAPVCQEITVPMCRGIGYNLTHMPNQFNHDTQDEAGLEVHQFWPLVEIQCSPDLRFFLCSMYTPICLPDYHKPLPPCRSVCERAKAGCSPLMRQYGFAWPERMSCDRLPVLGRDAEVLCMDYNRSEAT


Experiments:
FZD1 CRD [1] = target: T4, FZD1 CRD (Homo sapiens, UniProt Q9UP38); experiment: Flow cytometry of anti-FZD5 Fab binding to CHO cells overexpressing Frizzled CRD
T4 construct: D112-P238; GPI anchor signal (C); expressed in transfected cells; host or cells: CHO cells, lentiviral pLenti-puro
Procedure, shortened: (§1)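 CHO lines each expressing a different human Frizzled CRD, myc-tagged and GPI-anchored at the surface, stained with 200 nM Fab, then Alexa Fluor 488 F(ab′)2 secondary. Dead cells excluded by viability dye; anti-c-Myc staining served as expression control. Binding read by flow cytometry.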

FZD2 CRD = target: T5, FZD2 CRD (Homo sapiens, UniProt Q14332); experiment: as above
T5 construct: D35-P161; GPI anchor signal (C); expressed in transfected cells; host or cells: CHO cells, lentiviral pLenti-puro
Procedure, shortened: as §1

FZD1 CRD [2] = target: T4, FZD1 CRD; experiment: Immunofluorescence of anti-FZD5 Fab binding to CHO cells overexpressing Frizzled CRD; design: key: −: no binding; +: very weak binder; ++: weak binder; +++: good binder; ++++: very good binder
Procedure, shortened: (§2)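 First, ten CHO cell lines were made, each lentivirally expressing a different human Frizzled CRD tagged with myc and tethered by GPI. Next, anti-FZD5 Fabs were added to each line. Finally, binding was assessed by immunofluorescence and flow cytometry.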

FZD3 CRD = target: T1, FZD3 CRD; experiment: as above; design: key: −: no binding; +: very weak binder; ++: weak binder; +++: good binder; ++++: very good binder
Procedure, shortened: as §2

FZD4 CRD = target: T2, FZD4 CRD; experiment: as above; design: key: −: no binding; +: very weak binder; ++: weak binder; +++: good binder; ++++: very good binder
Procedure, shortened: as §2

FZD5 CRD = target: T3, FZD5 CRD; experiment: as above; design: key: −: no binding; +: very weak binder; ++: weak binder; +++: good binder; ++++: very good binder
Procedure, shortened: as §2

FZD7 CRD = target: T6, FZD7 CRD (Homo sapiens, UniProt O75084); experiment: as above; design: key: −: no binding; +: very weak binder; ++: weak binder; +++: good binder; ++++: very good binder
T6 construct: D45-S169; GPI anchor signal (C); expressed in transfected cells; host or cells: CHO cells, lentiviral pLenti-puro
Procedure, shortened: as §2

[3] = test system: CHO cells not expressing Frizzled CRD; experiment: Flow cytometry of anti-FZD5 Fab binding to CHO cells not expressing Frizzled CRD (background)
Text: The binding of anti-FZD5 Fabs to cell surface-expressed Frizzled protein was further determined for each member of the Frizzled family via flow cytometry and immunofluorescence analysis of a panel of 10 CHO cell lines, each ectopically over-expressing the extracellular cysteine-rich domain (CRD) of a different Frizzled protein family member.

Molecule | Median fluorescence, Frizzled CRD overexpressed on CHO cells: FZD1 (FZD1 CRD [1]) | Median fluorescence, Frizzled CRD overexpressed on CHO cells: FZD2 (FZD2 CRD) | Immunofluorescence binding, Frizzled CRD overexpressed on CHO cells: FZD1 (FZD1 CRD [2]) | Immunofluorescence binding, Frizzled CRD overexpressed on CHO cells: FZD3 (FZD3 CRD) | Immunofluorescence binding, Frizzled CRD overexpressed on CHO cells: FZD4 (FZD4 CRD) | Immunofluorescence binding, Frizzled CRD overexpressed on CHO cells: FZD5 (FZD5 CRD) | Immunofluorescence binding, Frizzled CRD overexpressed on CHO cells: FZD7 (FZD7 CRD) | Median fluorescence, Frizzled CRD overexpressed on CHO cells: None [3]
Fab-2928: anti-FZD5 Fab with antibody variable region Fv-2928; CDR SEQ ID NOs: 35, 36, 67, 105, 143, 175 (antibody, V domains shown) VH: EVQLVESGGGLVQPGGSLRLSCAASGFNISYSSIHWVRQAPGKGLEWVASIYPSYSSTYYADSVKGRFTISADTSKNTAYLQMNSLRAEDTAVYYCARYYAMDYWGQGTLVTVSS VL: DIQMTQSPSSLSASVGDRVTITCRASQSVSSAVAWYQQKPGKAPKLLIYSASSLYSGVPSRFSGSRSGTDFTLTISSLQPEDFATYYCQQAFYYPITFGQGTKVEIK | 18.43 | 14.59 | − | − | − | ++++ | − | 3.68
Fab-2907: anti-FZD5 Fab with antibody variable region Fv-2907; CDR SEQ ID NOs: 35, 36, 46, 85, 122, 159 (antibody, V domains shown) VH: EVQLVESGGGLVQPGGSLRLSCAASGFNIYSSYMHWVRQAPGKGLEWVASISSYSGSTYYADSVKGRFTISADTSKNTAYLQMNSLRAEDTAVYYCARSSWGAYIVSYGFDYWGQGTLVTVSS VL: DIQMTQSPSSLSASVGDRVTITCRASQSVSSAVAWYQQKPGKAPKLLIYSASSLYSGVPSRFSGSRSGTDFTLTISSLQPEDFATYYCQQVGYWWGLITFGQGTKVEIK | 3.28 | 4.07 | − | − | − | ++++ | + | 3.43
Fab-2925: anti-FZD5 Fab with antibody variable region Fv-2925; CDR SEQ ID NOs: 35, 36, 64, 102, 140, 172 (antibody, V domains shown) VH: EVQLVESGGGLVQPGGSLRLSCAASGFNLSYSSMHWVRQAPGKGLEWVASIYPSYGSTYYADSVKGRFTISADTSKNTAYLQMNSLRAEDTAVYYCARYGYFGLDYWGQGTLVTVSS VL: DIQMTQSPSSLSASVGDRVTITCRASQSVSSAVAWYQQKPGKAPKLLIYSASSLYSGVPSRFSGSRSGTDFTLTISSLQPEDFATYYCQQAWVYASLFTFGQGTKVEIK | 19.46 | 10.65 | ++ | − | − | ++++ | ++ | 3.55
